Assay results reported in publication PMC3634583.

Key:
[1] = Western blot of 293T lysate, 8 kDa BNP form; details: glycan lost; control: wild-type pre-proBNP
Western blot = details: glycan lost; control: wild-type pre-proBNP

What does the source list for “proBNP1-108 (pro-B-type natriuretic peptide): T71A”?
other: proteolytic processing [1]: increases; other: proteolytic processing (Western blot): increases
